According to patent publication US20160137746A1, “METHODS FOR TREATING HIGH CARDIOVASCULAR RISK PATIENTS WITH HYPERCHOLESTEROLEMIA” (Sanofi Biotechnology, priority 2014, published 2016):

System: high cardiovascular risk patients with hypercholesterolemia
Assay: ODYSSEY COMBO I: safety (TEAEs, adjudicated CV events, laboratory PCSA, low LDL-C)
[1] = alirocumab patients with LDL-C <25 mg/dL

Protocol: Safety was assessed through adverse event (AE) reporting (including adjudicated cardiovascular events), laboratory analyses, and vital signs measurement. Since the LDL-C-lowering effects of PCSK9 inhibition on top of a statin are unknown, a number of AEs were defined as being of special interest and were monitored, including alanine aminotransferase abnormalities, allergic events, hemolytic anemia, pregnancy, overdose with study drug, neurologic events, ophthalmic events, and local injection site reactions. AEs were determined to be of special interest based on review of previous clinical trials, correspondence with regulatory authorities and the Data Monitoring Committee, the use of a monoclonal antibody in this study, and the route of drug administration.
AEs (including adjudicated cardiovascular events), laboratory parameters, and vital signs were reported descriptively, based on the safety population (all randomized patients who received at least 1 dose or partial dose of study treatment). The safety analysis focused on the treatment-emergent AE period defined as the time from the first double-blind dose to the last double-blind dose of the investigational product +70 days (10 weeks).
The safety population included all randomized patients who received at least one dose or part of a dose of the double-blind IMP.
Safety analyses were descriptive, performed on the safety population according to treatment actually received. For analysis of TEAE and PCSA, the safety analysis focused on the TEAE period defined as the time from the first dose of double-blind IMP up to 70 days after the last double-blind injection.

Substance: Alirocumab: human anti-PCSK9 antibody; HCVR SEQ ID NO:1, LCVR SEQ ID NO:6; CDRs SEQ ID NOs 2/3/4/7/8/10
- Ischemic events (within SOC Cardiac disorders) (TEAE period): 9 events
- SAEs reported (TEAE period): 12.6%
- SOC Cardiac disorders (TEAE period): 8.2%
- SOC Metabolism and nutrition disorder (TEAE period): 10.1%
- SOC eye disorders (TEAE period): 4.3%
- Arthralgia rate (alirocumab group as a whole): 3.9%
- Invertebral disc protusion rate (alirocumab group as a whole): 1.0%
- Myalgia rate (alirocumab group as a whole): 3.4%
- Osteoarthritis rate (alirocumab group as a whole): 3.9%
- Arthralgia rate [1]: 5.1%
- Invertebral disc protusion rate [1]: 5.1%
- Myalgia rate [1]: 7.7%
- Osteoarthritis rate [1]: 7.7%
- Patients with cardiovascular events that were positively adjudicated (as stated in text b249 (5 patients)): 2.4%
- PCSA: decrease of hemoglobin from baseline ≧20 g/L (in vivo): 6.3%
- PCSA: new cases of erythrocytes values ≧6 Tera/L (in vivo): 2.5%
- Patients with impaired glucose control at baseline classified as diabetic in the TEAE period (in vivo): 7.4%
- Patients with two consecutive calculated LDL-C values <25 mg/dL (in vivo): 19.5%
- Safety in patients with two consecutive calculated LDL-C <25 mg/dL (in vivo): No particular safety concern
- Asthma (general allergic reactions), cases (including 2 serious cases): 5 (2.4%) No. (%)
- Deaths during treatment period (myocardial infarction and pulmonary embolism): 1.0%
- Tolerability (overall results): generally well tolerated
- Time to the first calculated LDL-C value <15 mg/dL, mean (SD) (safety population): 12.51 (6.83) weeks
- Time to the first calculated LDL-C value <15 mg/dL, median (safety population): 13.57 weeks
- Time to the first calculated LDL-C value <25 mg/dL, mean (SD) (safety population): 11.48 (9.72) weeks
- Time to the first calculated LDL-C value <25 mg/dL, median (safety population): 8.00 weeks
- Any patients with treatment emergent cardiovascular events confirmed by adjudication (safety population, to week 52): −6 (2.9) No. (%) of patients
- Arthralgia (TEAE preferred term) (safety population, to week 52): 8 (3.9) No. (%) of patients
- Congestive heart failure requiring hospitalization, adjudicated (safety population, to week 52): 0 No. (%) of patients
- Coronary heart disease death (including undetermined cause), adjudicated (safety population, to week 52): 1 (0.5) No. (%) of patients
- Dizziness (TEAE preferred term) (safety population, to week 52): 11 (5.3) No. (%) of patients
- Fatal and non-fatal ischemic stroke (including stroke not otherwise specified), adjudicated (safety population, to week 52): −2 (1.0) No. (%) of patients
- Injection site reaction (TEAE preferred term) (safety population, to week 52): 11 (5.3) No. (%) of patients
- Ischemia driven coronary revascularization procedure, adjudicated (safety population, to week 52): 3 (1.4) No. (%) of patients
- Local injection site reactions (AE of special interest) (safety population, to week 52): 11 (5.3) No. (%) of patients
- Nasopharyngitis (TEAE preferred term) (safety population, to week 52): 15 (7.2) No. (%) of patients
- Neurocognitive disorders (AE of special interest) (safety population, to week 52): 0 (0) No. (%) of patients
- Neurological events (AE of special interest) (safety population, to week 52): 5 (2.4) No. (%) of patients
- Non-cardiac chest pain (TEAE preferred term) (safety population, to week 52): 2 (1.0) No. (%) of patients
- Non-fatal myocardial infarction, adjudicated (safety population, to week 52): 1 (0.5) No. (%) of patients
- Potential general allergic reaction events (AE of special interest) (safety population, to week 52): 18 (8.7) No. (%) of patients
- Sinusitis (TEAE preferred term) (safety population, to week 52): 11 (5.3) No. (%) of patients
- TEAE leading to death (safety population, to week 52): 2 (1.0) No. (%) of patients
- TEAEs (safety population, to week 52): 157 (75.8) No. (%) of patients
- TEAEs leading to discontinuation (safety population, to week 52): 13 (6.3) No. (%) of patients
- Treatment-emergent SAEs (safety population, to week 52): 26 (12.6) No. (%) of patients
- Local injection site reactions (AE of special interest) (safety population, to week 52, listed as alirocumab): 11 (5.3%) No. (%) of patients
